Numbering of substitutions follows the chain as printed. In names and notes the source's numbering stands.
T1: Human T cell receptor on human primary T cells (human, UniProt P01848 1-140; P01850 1-176)
T1 TCR alpha (looked up): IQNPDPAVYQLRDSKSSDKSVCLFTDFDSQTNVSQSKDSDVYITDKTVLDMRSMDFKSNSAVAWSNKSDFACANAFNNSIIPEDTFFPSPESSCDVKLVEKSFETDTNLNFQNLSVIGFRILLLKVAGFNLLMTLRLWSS
T1 TCR beta (looked up): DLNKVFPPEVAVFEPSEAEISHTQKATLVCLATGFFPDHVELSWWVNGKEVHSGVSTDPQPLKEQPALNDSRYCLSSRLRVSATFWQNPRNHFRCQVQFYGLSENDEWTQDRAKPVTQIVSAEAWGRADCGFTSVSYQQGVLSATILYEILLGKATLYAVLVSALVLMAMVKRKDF

T2: Cynomolgus TCR(AEA41865/AEA41866)-zipper protein (cynomolgus monkey)
T2 construct: also called cyTCR-zipper protein; cynoTCR zipper
T2 TCR alpha: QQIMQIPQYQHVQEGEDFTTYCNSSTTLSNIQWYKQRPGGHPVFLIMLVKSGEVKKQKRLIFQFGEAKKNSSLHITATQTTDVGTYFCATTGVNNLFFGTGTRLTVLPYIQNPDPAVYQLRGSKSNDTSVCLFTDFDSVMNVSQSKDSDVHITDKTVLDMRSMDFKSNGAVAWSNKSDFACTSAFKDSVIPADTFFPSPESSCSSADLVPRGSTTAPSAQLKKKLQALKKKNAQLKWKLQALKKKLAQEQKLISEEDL
T2 TCR beta: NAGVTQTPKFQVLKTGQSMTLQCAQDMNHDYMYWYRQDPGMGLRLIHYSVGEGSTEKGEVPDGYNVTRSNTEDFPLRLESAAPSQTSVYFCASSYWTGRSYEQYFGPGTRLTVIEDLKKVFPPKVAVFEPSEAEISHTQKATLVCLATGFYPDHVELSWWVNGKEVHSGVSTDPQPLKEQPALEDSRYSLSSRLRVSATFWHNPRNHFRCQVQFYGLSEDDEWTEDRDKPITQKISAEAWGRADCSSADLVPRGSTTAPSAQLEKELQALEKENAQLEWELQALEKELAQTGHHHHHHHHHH

T3: Cynomolgus TCR(AEA41865/AEA41866)-zipper protein (cynomolgus monkey)
T3 construct: also called cyTCR-zipper protein; cynoTCR zipper
T3 TCR alpha: T2 TCR alpha
T3 TCR beta: T2 TCR beta

B1: T017000640 (bispecific antibody)
chain: DVQLVESGGGLVQAGGSLRLSCAASGITSKINDMGWYRQTPGNYREWVASITATGTTNYRDSVKGRFTISRDNAKSTVYLQMNSLKPEDTTVYYCNTFPPISNFWGQGTLVTVSSGGGGSGGGGSGGGGSGGGGSGGGGSGGGGSGGGGSEVQLVESGGGVVQPGGSLRLSCVASWDVHKINFYTWYRQAPGKEREKVAHISIGDQTDYADSAKGRFTISRDESKNTVYLQMNSLRPEDTALYYCRALSRIWPYDYWGQGTLVTVSSA
notes: also called A0110056A10(E1D)-35GS-T0170056G05(L11V, G26W, L34Y, G35T, M77T, K83R, V89L, F91Y, F95L, Y99W)-A
B2: T017000643 (bispecific antibody)
chain: B1 chain with R250K
notes: also called A0110056A10(E1D)-35GS-T0170056G05(L11V, G26W, L34Y, G35T, M77T, K83R, V89L, F91Y, F95L, R97K, Y99W)-A
B3: T017000627 (bispecific antibody)
chain: DVQLVESGGGVVQPGGSLRLSCVASWDVHKINFYGWYRQAPGKEREKVAHISIGDQTDYADSAKGRFTISRDESKNTVYLQMNSLRPEDTALYYCRALSKIWPYDYWGQGTLVTVSSGGGGSGGGGSGGGGSGGGGSGGGGSGGGGSGGGGSEVQLVESGGGLVQAGGSLRLSCAASGITSKINDMGWYRQTPGNYREWVASITATGTTNYRDSVKGRFTISRDNAKSTVYLQMNSLKPEDTTVYYCNTFPPISNFWGQGTLVTVSSA
B4: T017000642 (bispecific antibody)
chain: B3 chain with G35T
B5: T017000639 (bispecific antibody)
chain: B3 chain with G35T, K100R
B6: T017000636 (bispecific antibody)
chain: B3 chain with K30Q, K100R
B7: T017000383 (VHH)
VHH: EVQLVESGGGVVQPGGSLRLSCVASGDVHQINFLGWYRQAPGKEREKVAHISIGDQTDYADSAKGRFTISRDESKNMVYLQMNSLRPEDTALYFCRAMSRIWPYDYWGQGTLVTVSS
B8: T017000468 (VHH)
VHH: B7 VHH with D27S, Q30K, L34Y, M98F
B9: T017000390 (VHH)
VHH: B7 VHH with G26W, R100K
B10: T017000358 (VHH)
VHH: B7 VHH with D27A, Q30K, I31L
B11: T017000141 (VHH, not shown: small tags and cut ends)
VHH: B7 VHH with Q30K, M98F, W102Y
notes: also called T0170000141
For % Lysis, T cell mediated MOLM-13 cell killing, cynomolgus primary T cells, E:T 10:1 in this document: test concentration or dose not given here.
For % Lysis, T cell mediated MOLM-13 cell killing, human primary T cells, E:T 10:1 in this document: test concentration or dose not given here.

Target: T1, Human T cell receptor on human primary …
Assay: cell-based or functional assay
With B1 the “% Lysis, T cell mediated MOLM-13 cell killing, human primary T cells, E:T 10:1” value (“% Lysis … human primary T cells, E:T 10:1” for short) was 37% and the “EC50 (M), T cell mediated MOLM-13 cell killing, human primary T cells, E:T 10:1” value (from here on “EC50 (M) … human primary T cells, E:T 10:1”) was 5.7e-10 M. B2 was tested, and the “% Lysis … human primary T cells, E:T 10:1” value was 0%. B3 was tested, and the “% Lysis … human primary T cells, E:T 10:1” value was 36% and the “EC50 (M) … human primary T cells, E:T 10:1” value was 2.4e-10 M. For B4, the “% Lysis … human primary T cells, E:T 10:1” value was 32% and the “EC50 (M) … human primary T cells, E:T 10:1” value was 3e-10 M. In the case of B5, the “% Lysis … human primary T cells, E:T 10:1” value is reported as 42% and the “EC50 (M) … human primary T cells, E:T 10:1” value is reported as 3.6e-11 M. For B6, the “% Lysis … human primary T cells, E:T 10:1” value was 36% and the “EC50 (M) … human primary T cells, E:T 10:1” value was 6.6e-11 M.

Target: T2, Cynomolgus …
Assay: SPR ProteOn off-rate screen
B7 gave a koff of 0.00216 s⁻¹. B8 gave a koff of 0.00141 s⁻¹. B9 gave a koff of 0.000221 s⁻¹. With B10 the koff was 0.00115 s⁻¹.

Target: T3, Cynomolgus …
Assay: SPR, ProteOn XPR36, 25 C, immobilised TCR-zipper
Description: HuTCR-zipper or cyTCR-zipper protein was immobilized on a GLC sensor chip (between 100-200 RU) via amine coupling chemistry, using EDC/NHS for activation of the carboxyl groups on the chip surface (running buffer: HBS-EP+, pH7.4). […] Processed sensorgrams were fitted with the Langmuir model (1:1 interaction) using ProteOn Manager 3.1.0 (Version 3.1.0.6) software.
For B1, the Kd was 15000 nM. With B2 the Kd was 900 nM. In the case of B3, the Kd is reported as 5.2 nM. For B4, the Kd was 5.5 nM. B5 showed a Kd of 44 nM. B6 showed a Kd of 29 nM.

The binders below were run against Cynomolgus T cell receptor on cynomolgus primary T cells (cynomolgus monkey) (assay: cell-based or functional assay).
In the case of B1, the “% Lysis, T cell mediated MOLM-13 cell killing, cynomolgus primary T cells, E:T 10:1” value (“% Lysis … cynomolgus primary T cells, E:T 10:1” for short) is reported as 6%. With B2 the “% Lysis … cynomolgus primary T cells, E:T 10:1” value was 12% and the “EC50 (M), T cell mediated MOLM-13 cell killing, cynomolgus primary T cells, E:T 10:1” value (shortened to “EC50 (M) … cynomolgus primary T cells, E:T 10:1”) was 1.6e-10 M. For B3, the “% Lysis … cynomolgus primary T cells, E:T 10:1” value was 19% and the “EC50 (M) … cynomolgus primary T cells, E:T 10:1” value was 3.8e-11 M. In the case of B4, the “% Lysis … cynomolgus primary T cells, E:T 10:1” value is reported as 37% and the “EC50 (M) … cynomolgus primary T cells, E:T 10:1” value is reported as 4e-11 M. In the case of B5, the “% Lysis … cynomolgus primary T cells, E:T 10:1” value is reported as 28% and the “EC50 (M) … cynomolgus primary T cells, E:T 10:1” value is reported as 4.1e-11 M. With B6 the “% Lysis … cynomolgus primary T cells, E:T 10:1” value was 20% and the “EC50 (M) … cynomolgus primary T cells, E:T 10:1” value was 6.7e-11 M.

Target: T2, Cynomolgus …
Assay: ratio higher/lower kd on huTCR- and cyTCR-zipper (SPR)
Description: Unique ISVD clones, i.e. clones with a unique sequence, were subsequently selected and screened to determine their off-rate. To this purpose, the ISVD containing periplasmic extracts were screened on huTCR-zipper and cyTCR-zipper protein by SPR on a ProteOn XPR36 instrument. The zipper proteins were immobilized on a GLC sensor chip (between 4300 and 5100RU) via amine coupling chemistry, using EDC/sulfo-NHS for activation of the carboxyl groups on the chip surface (running buffer: HBS-EP+, pH7.4). Periplasmic extracts were injected at 1/10 dilution for 2 min (at a flow rate of 45 μL/min) and dissociation was followed for 900 s. A pulse of 100 s of 3 M MgCl2 at 45 μL/min was used for regeneration. […] Processed sensorgrams were fitted with the Langmuir model (1:1 interaction) using ProteOn Manager 3.1.0 (Version 3.1.0.6) software.
With B11 the “gap in off-rate human vs cyno” value was 7.5 fold. For B7, the “gap in off-rate human vs cyno” value was 5 fold. In the case of B8, the “gap in off-rate human vs cyno” value is reported as 8 fold. In the case of B9, the “gap in off-rate human vs cyno” value is reported as 3 fold. With B10 the “gap in off-rate human vs cyno” value was 8 fold.
